Test [1] has as its target T1, Human cytosolic glutamyl-prolyl-tRNA synthetase (human, UniProt P07814 1-1512).
T1 construct: human cytosolic EPRS, gene cloned from the cDNA of HEK293 cells; also called EPRS; source: recombinant from a modified pET28b, purified (Ni-NTA, gel filtration)
The experiment in a line: pull-down; in vitro assembly of the MSC as in a2 but lacking IRS; anti-Flag beads on MRS-Flag. The conditions noted are these: both partners purified.

The target of test [2] is T2, Human cytosolic isoleucyl-tRNA synthetase (human, UniProt P41252 1-1262).
T2 construct: human cytosolic isoleucyl-tRNA synthetase (IRS), gene cloned from the cDNA of HEK293 cells; also called IRS; source: recombinant from a modified pET28b, purified (Ni-NTA, gel filtration)
T2 sequence (looked up): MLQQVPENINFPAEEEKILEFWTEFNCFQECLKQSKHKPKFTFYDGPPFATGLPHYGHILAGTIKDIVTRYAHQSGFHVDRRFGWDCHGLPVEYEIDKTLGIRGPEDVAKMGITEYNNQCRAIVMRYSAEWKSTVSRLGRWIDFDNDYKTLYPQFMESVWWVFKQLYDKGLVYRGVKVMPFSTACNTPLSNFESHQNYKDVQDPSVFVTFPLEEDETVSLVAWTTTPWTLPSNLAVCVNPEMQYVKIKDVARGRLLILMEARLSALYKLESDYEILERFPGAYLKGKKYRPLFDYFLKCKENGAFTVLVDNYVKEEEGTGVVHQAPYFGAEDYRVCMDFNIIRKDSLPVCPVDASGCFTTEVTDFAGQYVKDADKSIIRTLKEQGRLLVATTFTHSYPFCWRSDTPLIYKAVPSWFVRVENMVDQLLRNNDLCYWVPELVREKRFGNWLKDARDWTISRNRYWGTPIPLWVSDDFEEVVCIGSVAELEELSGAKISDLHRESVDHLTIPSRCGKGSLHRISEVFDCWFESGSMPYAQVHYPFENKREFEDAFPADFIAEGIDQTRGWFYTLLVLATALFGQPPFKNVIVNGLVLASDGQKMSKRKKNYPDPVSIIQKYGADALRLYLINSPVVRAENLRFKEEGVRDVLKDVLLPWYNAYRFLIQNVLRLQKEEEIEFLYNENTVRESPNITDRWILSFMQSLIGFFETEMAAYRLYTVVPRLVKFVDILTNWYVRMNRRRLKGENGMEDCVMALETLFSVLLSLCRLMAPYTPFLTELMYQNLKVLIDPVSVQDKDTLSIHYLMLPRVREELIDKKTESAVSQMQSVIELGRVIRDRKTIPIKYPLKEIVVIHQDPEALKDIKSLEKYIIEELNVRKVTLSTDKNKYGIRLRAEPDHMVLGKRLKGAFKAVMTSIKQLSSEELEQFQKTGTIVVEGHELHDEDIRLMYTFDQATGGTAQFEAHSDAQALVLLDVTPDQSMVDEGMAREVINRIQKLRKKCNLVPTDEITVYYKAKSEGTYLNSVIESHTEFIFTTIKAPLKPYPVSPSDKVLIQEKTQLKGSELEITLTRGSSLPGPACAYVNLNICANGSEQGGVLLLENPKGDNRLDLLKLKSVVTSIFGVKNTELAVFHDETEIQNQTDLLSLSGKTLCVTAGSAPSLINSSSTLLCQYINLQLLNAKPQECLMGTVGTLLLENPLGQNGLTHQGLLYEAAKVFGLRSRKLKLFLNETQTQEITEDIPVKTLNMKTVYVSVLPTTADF
The experiment in a line: pull-down; in vitro assembly of the MSC as in a2 but lacking hcLRS; anti-Flag beads on MRS-Flag. The conditions noted are these: both partners purified.

T1 sequence (P07814 whole entry): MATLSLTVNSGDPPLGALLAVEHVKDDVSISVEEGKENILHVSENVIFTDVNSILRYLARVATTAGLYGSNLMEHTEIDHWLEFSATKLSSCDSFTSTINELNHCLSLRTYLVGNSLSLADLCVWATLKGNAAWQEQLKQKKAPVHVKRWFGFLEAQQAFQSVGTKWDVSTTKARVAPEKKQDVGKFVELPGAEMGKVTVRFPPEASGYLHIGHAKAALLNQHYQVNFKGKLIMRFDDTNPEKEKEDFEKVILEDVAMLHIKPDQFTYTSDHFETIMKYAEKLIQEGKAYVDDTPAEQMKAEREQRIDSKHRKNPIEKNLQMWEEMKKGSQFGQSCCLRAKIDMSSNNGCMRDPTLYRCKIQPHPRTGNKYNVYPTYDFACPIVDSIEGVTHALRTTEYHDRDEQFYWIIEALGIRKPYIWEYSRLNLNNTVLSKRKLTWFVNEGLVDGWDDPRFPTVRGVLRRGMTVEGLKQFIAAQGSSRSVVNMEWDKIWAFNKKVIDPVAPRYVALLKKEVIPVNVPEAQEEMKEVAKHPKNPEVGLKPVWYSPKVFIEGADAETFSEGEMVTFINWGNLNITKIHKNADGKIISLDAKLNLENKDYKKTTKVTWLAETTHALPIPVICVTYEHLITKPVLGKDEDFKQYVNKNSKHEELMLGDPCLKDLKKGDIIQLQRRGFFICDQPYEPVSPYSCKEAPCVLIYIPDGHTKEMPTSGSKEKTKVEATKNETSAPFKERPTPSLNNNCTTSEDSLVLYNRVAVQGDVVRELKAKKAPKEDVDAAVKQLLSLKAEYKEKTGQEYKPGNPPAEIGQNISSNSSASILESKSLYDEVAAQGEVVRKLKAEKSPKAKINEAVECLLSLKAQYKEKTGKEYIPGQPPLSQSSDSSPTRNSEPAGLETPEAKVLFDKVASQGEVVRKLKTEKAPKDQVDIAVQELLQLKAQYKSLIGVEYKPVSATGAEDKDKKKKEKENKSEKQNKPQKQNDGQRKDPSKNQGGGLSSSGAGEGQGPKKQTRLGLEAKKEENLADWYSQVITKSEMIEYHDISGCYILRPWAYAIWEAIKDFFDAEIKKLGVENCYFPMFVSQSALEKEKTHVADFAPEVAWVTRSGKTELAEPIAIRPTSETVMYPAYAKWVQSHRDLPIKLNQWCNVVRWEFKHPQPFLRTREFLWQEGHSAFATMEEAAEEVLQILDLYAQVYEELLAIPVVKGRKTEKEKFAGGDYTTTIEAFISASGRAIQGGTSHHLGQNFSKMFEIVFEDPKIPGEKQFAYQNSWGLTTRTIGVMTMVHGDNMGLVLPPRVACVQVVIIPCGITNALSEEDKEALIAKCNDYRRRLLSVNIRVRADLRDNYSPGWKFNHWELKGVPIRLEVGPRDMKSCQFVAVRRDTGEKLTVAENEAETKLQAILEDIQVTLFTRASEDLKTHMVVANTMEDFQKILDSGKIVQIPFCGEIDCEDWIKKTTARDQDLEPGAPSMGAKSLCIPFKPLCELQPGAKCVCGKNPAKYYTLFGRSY

B1: MRS-AIMP3 complex (human cytosolic methionyl-tRNA synthetase co-expressed with AIMP3) (complex)
chain 1: MRLFVSDGVPGCLPVLAAAGRARGRAEVLISTVGPEDCVVPFLTRPKVPVLQLDSGNYLFSTSAICRYFFLLSGWEQDDLTNQWLEWEATELQPALSAALYYLVVQGKKGEDVLGSVRRALTHIDHSLSRQNCPFLAGETESLADIVLWGALYPLLQDPAYLPEELSALHSWFQTLSTQEPCQRAAETVLKQQGVLALRPYLQKQPQPSPAEGRAVTNEPEEEELATLSEEEIAMAVTAWEKGLESLPPLRPQQNPVLPVAGERNVLITSALPYVNNVPHLGNIIGCVLSADVFARYSRLRQWNTLYLCGTDEYGTATETKALEEGLTPQEICDKYHIIHADIYRWFNISFDIFGRTTTPQQTKITQDIFQQLLKRGFVLQDTVEQLRCEHCARFLADRFVEGVCPFCGYEEARGDQCDKCGKLINAVELKKPQCKVCRSCPVVQSSQHLFLDLPKLEKRLEEWLGRTLPGSDWTPNAQFITRSWLRDGLKPRCITRDLKWGTPVPLEGFEDKVFYVWFDATIGYLSITANYTDQWERWWKNPEQVDLYQFMAKDNVPFHSLVFPCSALGAEDNYTLVSHLIATEYLNYEDGKFSKSRGVGVFGDMAQDTGIPADIWRFYLLYIRPEGQDSAFSWTDLLLKNNSELLNNLGNFINRAGMFVSKFFGGYVPEMVLTPDDQRLLAHVTLELQHYHQLLEKVRIRDALRSILTISRHGNQYIQVNEPWKRIKGSEADRQRAGTVTGLAVNIAALLSVMLQPYMPTVSATIQAQLQLPPPACSILLTNFLCTLPAGHQIGTVSPLFQKLENDQIESLRQRFGGGQAKTSPKPAVVETVTTAKPQQIQALMDEVTKQGNIVRELKAQKADKNEVAAEVAKLLDLKKQLAVAEGKPPEAPKGKKKK
chain 2: MAAAAELSLLEKSLGLSKGNKYSAQGERQIPVLQTNNGPSLTGLTTIAAHLVKQANKEYLLGSTAEEKAIVQQWLEYRVTQVDGHSSKNDIHTLLKDLNSYLEDKVYLTGYNFTLADILLYYGLHRFIVDLTVQEKEKYLNVSRWFCHIQHYPGIRQHLSSVVFIKNRLYTNSH
notes: human cytosolic methionyl-tRNA synthetase (MRS), gene cloned from the cDNA of HEK293 cells; Only MRS carries the Flag tag; It is the bait of the anti-Flag pull-down of the assembled MSC; source: co-expressed from a modified pETDuet-1, purified (Ni-NTA, gel filtration); not shown: Flag, C-terminal, kept
Regarding B1, the binding result in test [1] and in test [2] was “binds” throughout.

Values taken from PMC7229842, “Molecular basis of the multifaceted functions of human leucyl-tRNA synthetase in protein synthesis and beyond” (Nucleic Acids Research, 2020).
